B1: monoclonal antibody C179 (antibody)
chain 1: EVKLVESGGGLVQPGGSLRLSCGTSGFTLTDDYMTWVRQPPGKALEWLGFIRDRANGYTTEYSASVKGRFTISRDNSQSIVYLQMNTLRVEDSATYYCARPKGYFPYAMDYWGQGT
chain 2: DIQMTQSPASQSASLGESVTITCLASQTIGTWLAWYQQKPGKSPQLLIYAATSLADGVPSRFSGSGSGTKFSFKISSLQAEDFVSYYCQQLYSTPW

Key:
Assay in all cases: cell-based or functional assay
[1] = target: HA molecule of A/Adachi/2/57 (H2N2) (influenza A virus A/Adachi/2/57 (H2N2))
[2] = target: HA molecule of A/Bangkok/10/83 (H1N1) (influenza A virus A/Bangkok/10/83 (H1N1))
[3] = target: HA molecule of A/Fukuoka/C29/85 (H3N2) (influenza A virus A/Fukuoka/C29/85 (H3N2))
[4] = target: HA molecule of A/Ibaraki/1/90 (H3N2) (influenza A virus A/Ibaraki/1/90 (H3N2))
[5] = target: HA molecule of A/Izumi/5/65 (H2N2) (influenza A virus A/Izumi/5/65 (H2N2))
[6] = target: HA molecule of A/Kaizuka/2/65 (H2N2) (influenza A virus A/Kaizuka/2/65 (H2N2))
[7] = target: HA molecule of A/Kitakyushu/159/93 (H3N2) (influenza A virus A/Kitakyushu/159/93 (H3N2))
[8] = target: HA molecule of A/Kumamoto/1/65 (H2N2) (influenza A virus A/Kumamoto/1/65 (H2N2))
[9] = target: HA molecule of A/Osaka/930/88 (H1N1) (influenza A virus A/Osaka/930/88 (H1N1))
[10] = target: HA molecule of A/Sichuan/2/87 (H3N2) (influenza A virus A/Sichuan/2/87 (H3N2))
[11] = target: HA molecule of A/Suita/1/90 (H3N2) (influenza A virus A/Suita/1/90 (H3N2))
[12] = target: HA molecule of A/Yamagata/120/86 (H1N1) (influenza A virus A/Yamagata/120/86 (H1N1))
[13] = target: HA molecule of A1/FM/1/47 (H1N1) (influenza A virus A1/FM/1/47 (H1N1))
[14] = target: HA molecule of A2/Aichi/2/68 (H3N2) (influenza A virus A2/Aichi/2/68 (H3N2))
[15] = target: HA molecule of influenza B virus strain B/Nagasaki/1/87 (influenza B virus B/Nagasaki/1/87)
[16] = target: HA molecule of A/PR/8/34 (H1N1) (influenza A virus A/PR/8/34 (H1N1), UniProt P03452 18-565)
HA molecule of A/PR/8/34 (H1N1), sequence (P03452 18-565): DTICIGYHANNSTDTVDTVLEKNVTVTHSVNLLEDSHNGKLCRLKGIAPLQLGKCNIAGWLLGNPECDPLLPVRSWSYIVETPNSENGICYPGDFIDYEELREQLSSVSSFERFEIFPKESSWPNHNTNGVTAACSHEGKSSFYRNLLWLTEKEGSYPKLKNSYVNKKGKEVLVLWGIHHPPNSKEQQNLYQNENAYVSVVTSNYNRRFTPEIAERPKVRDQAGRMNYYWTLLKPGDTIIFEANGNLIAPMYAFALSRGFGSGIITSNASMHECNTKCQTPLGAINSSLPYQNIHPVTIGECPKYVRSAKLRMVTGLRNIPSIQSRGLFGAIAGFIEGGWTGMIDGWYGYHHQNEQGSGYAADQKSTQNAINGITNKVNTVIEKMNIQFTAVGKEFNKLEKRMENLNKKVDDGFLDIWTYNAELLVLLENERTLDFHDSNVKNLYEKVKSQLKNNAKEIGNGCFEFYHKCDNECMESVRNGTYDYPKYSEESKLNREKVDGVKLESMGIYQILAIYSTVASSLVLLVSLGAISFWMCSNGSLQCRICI

| Molecule | HI (hemagglutination inhibition test) (dilution ratio of ascites fluid) [1] | HI (hemagglutination inhibition test) (dilution ratio of ascites fluid) [2] | HI (hemagglutination inhibition test) (dilution ratio of ascites fluid) [3] | HI (hemagglutination inhibition test) (dilution ratio of ascites fluid) [4] | HI (hemagglutination inhibition test) (dilution ratio of ascites fluid) [5] | HI (hemagglutination inhibition test) (dilution ratio of ascites fluid) [6] | HI (hemagglutination inhibition test) (dilution ratio of ascites fluid) [7] | HI (hemagglutination inhibition test) (dilution ratio of ascites fluid) [8] | HI (hemagglutination inhibition test) (dilution ratio of ascites fluid) [9] | HI (hemagglutination inhibition test) (dilution ratio of ascites fluid) [10] | HI (hemagglutination inhibition test) (dilution ratio of ascites fluid) [11] | HI (hemagglutination inhibition test) (dilution ratio of ascites fluid) [12] | HI (hemagglutination inhibition test) (dilution ratio of ascites fluid) [13] | HI (hemagglutination inhibition test) (dilution ratio of ascites fluid) [14] | HI (hemagglutination inhibition test) (dilution ratio of ascites fluid) [15] | HI (hemagglutination inhibition test) [16] |
| --- | --- | --- | --- | --- | --- | --- | --- | --- | --- | --- | --- | --- | --- | --- | --- | --- |
| monoclonal antibody C179 | < 32 | < 32 | < 32 | < 32 | < 32 | < 32 | < 32 | < 32 | < 32 | < 32 | < 32 | < 32 | < 32 | < 32 | < 32 | – |
| B1 | – | – | – | – | – | – | – | – | – | – | – | – | – | – | – | < 32 dilution ratio of ascites fluid |

Reference: patent US20020054882A1 (TAKARA SHUZO, published 2002)
